Experimental data as given in the Human Domainome abundance scans (Beltran et al. 2025).

B1: POU domain, class 3, transcription factor 3, residues 408 to 463; numbered along this chain, P20264 (parent)
chain: KKRTSIEVSVKGALESHFLKCPKPSAQEITNLADSLQLEKEVVRVWFCNRRQKEKR

Variants of: B1
Experiment: abundance fitness (aPCA) (normalised: wild type 0, dead -1); higher = more abundant; growth selection in yeast, the domain comes from the species named
Details: Homo sapiens

Abundance fitness, by site and new letter:
A33: T -0.939; R -0.989; M -0.823; P -0.909; L -0.889; W -0.878; S -0.052; I -0.864; V -0.955; K -0.981; N -0.941; Y -0.836; Q -0.931
S35: P -0.76; H -0.048; I -0.122; K 0.162; D -0.158; M -0.133; F -0.177; E -0.032; W -0.228; A -0.019; N -0.078; T -0.07; R 0.117; C -0.079; G -0.194; L -0.083; Q -0.04
E41: M -0.534; C -0.54; S -0.243; V -0.884; F -1.1; A -0.344; D 0.037; H -0.196; T -0.308; R -0.352; P -0.933; W -0.3; N -0.318; Q -0.414; Y -0.625; G -0.305
V43: D -0.972; P -0.818; Q -0.88; G -0.967; E -0.792; C -0.714; S -0.926; I -0.341; M -0.863; F -1.02; L -0.382; N -0.493; R -0.931; T -0.595; W -0.994; H -0.673
D34: N 0.143
V42: I -0.107; Q -0.016; Y -0.02; N -0.586; D -0.014; W -0.108; M 0.084; R -0.224; G -0.339; C -0.172; F -0.056; P -0.556; L -0.091; K -0.333; A 0.003; S -0.094; H -0.34; E 0.032
K40: C -0.038; R -0.06; L -0.103; M -0.336; N -0.118; I 0.048; W -0.073; S 0.016; G -0.056; Q 0.122; H -0.136; T -0.076; D -0.028; E 0.077
R44: S -0.55; E 0.213; W -0.377; V -0.224; G -0.165
L36: F -0.177; W -0.565; S -0.866; G -0.929; H -0.434; Y -0.313; A -0.906; M -0.166; Q -0.812; P -1.03; D -1.02; V -0.522; N -0.869; R -0.955; I -0.377; C -0.517
L38: M -0.13; H -0.735; I -0.048; K -0.895; P -0.951; T -0.18; R -0.889; C -0.387; A -0.693; G -0.943; Y -0.982; Q -0.605; S -0.699; F -0.91
E39: T -0.074; P -0.116; Q -0.322; N 0.013; R -0.327; G -0.257; M -0.428; F -0.948; I -0.919; S -0.055; A -0.153; H -0.224; W -0.89; C -0.109; Y -0.927; D 0.124; K -0.258; L -0.719
Q37: E -0.042; L -0.188; A 0.013; I -0.453; C -0.156; Y -0.342; S -0.054; W -0.374; T -0.257; P -0.671; F -0.3; N -0.037; H -0.034; R -0.072; D 0; G 0.013
V45: D 0.098; E 0.034; C -0.177
